# Results as given in patent US20190184015A1, “IRRADIATION TREATMENT OF NEUROLOGICAL SENSATIONS BY PHOTOABLATION” (European Molecular Biology Laboratory, priority 2016, published 2019).
# Entries after “also recorded” stand apart in the source; their conditions may differ.
# Assays:
# TrkB positive neurons = test: Diphtheria toxin mediated ablation of TrkB+ sensory neurons in TrkBCreERT2::AviliDTR mice; type: in vivo, mouse; conditions: systemic injection; DRG sections
# [1] = tested on: Calcipotriol model of atopic dermatitis; test: Calcipotriol model of atopic dermatitis; conditions: prevention: injection and near IR illumination 3 days prior to Calcipotriol
# TrkB positive afferents = test: Innervation of skin and DRG neuron counts after photoablation; type: in vivo, mouse; conditions: 7 days after photoablation (13 days post-SNI)
# Source text: Prior to photoablation, TrkB positive lanceolate endings were detected around hair follicles (FIG. 9a) and innervating Meissner corpuscles in the plantar surface of the paw. […] It was further investigated whether loss of TrkB^CreERT2 neurons was also evident at the level of the cell soma by analyzing the number of TrkB^CreERT2 positive neurons in the DRG.
# [2] = tested on: HEK293T cells expressing TrkB/p75; test: BDNF^SNAP-IR700 photoablation of HEK293T cells (propidium iodide); type: cell-based; conditions: HEK293T cells expressing TrkB/p75; 24 hours after brief illumination
# Source text: In initial experiments BDNF^SNAP-IR700 was applied to HEK293T cells expressing TrkB/p75 and cell death assayed following near infrared illumination.
# primary keratinocytes = test: In-vitro photo-ablation of primary keratinocytes (propidium iodide staining); type: cell-based, mouse; conditions: wild type keratinocytes; near infra-red light; 24 hours after
# Experimental: 1 μM IL31^SNAP and 3 μM BG-IR700 were coupled for 1 hour at 37° C. The coupling reaction was applied for 10 minutes at 37° C. on primary wild type and IL31RA^−/− keratinocytes. Cells were then exposed to near infra-red light (680 nm) at 40 J/cm^2 for 2 minutes. 24 hours after light exposure cell death was assessed by Propidium iodide (PI) staining (Invitrogen #P3566) and cells were imaged with an epifluorescent microscope.
# IL31 Receptor A (IL31RA) = test: Binding studies in primary keratinocyte cultures with BG-Surface549 labelled ligand; set-up: species or system mouse
# Source text: The inventors produced recombinant IL31 with a C-terminal fusion of SNAP (IL31^SNAP) in E. Coli. […] To determine whether IL31^SNAP was functional the inventors first performed binding studies in primary keratinocyte cultures. IL31^SNAP was labelled in vitro with BG-Surface549 and applied to keratinocytes from wildtype or IL31 Receptor A (IL31RA) knockout mice (IL31RA^−/−). […] The inventors further examined IL31^SNAP labelling in vivo by injecting IL31^SNAP-Surface549 intradermally into the back skin of wild type and IL31RA^−/− mice. […] Finally, the inventors determined whether IL31^SNAP was active by quantifying scratching behavior in mice upon intradermal injection. […] Thus the IL31^SNAP retains the functional properties of native IL31.
# Primary keratinocytes were isolated from 1-3 day-old wild type and IL31RA^−/− mice as previously described (25). Briefly, newborn mouse skin was removed and incubated flat in cold and freshly thawed trypsin overnight, at 4° C., with the dermis side down. The next day, epidermis was peeled off, triturated and keratinocytes were cultured in serum free media (Invitrogen #10744-019) on Collagen I (Sigma #3867)-coated dishes (Ibidi #81151). All experiments were performed on 48-72 hours cultured cells.
# Cells were incubated with the coupling reaction for […] at 37° C., then washed 3 times in CIB; and imaged using confocal microscope.
# [3] = tested on: wild type and IL31RA^−/− mice; test: Scratching behavior upon intradermal injection of the ligand; type: in vivo, mouse; conditions: 5 μM
# [4] = tested on: phosphorylated Akt, pMAPK and pSTAT3; test: Immunoblot of IL31 downstream signaling in injected skin; type: in vivo, mouse; conditions: skin harvested 1 hour after subcutaneous injection, 5 μM
# Source text: A conceptual problem of using IL31^SNAP therapeutically is that it in itself evokes itch. The inventors therefore sought to engineer IL31^SNAP to obtain a ligand that still binds to IL31 receptor complex but no longer promotes signaling. […] The K138A mutation denotes the murine IL31 mutations. The corresponding mutation in the human IL31 protein is at position K134 in the human IL31 (SEQ ID NO: 1). The inventors generated a recombinant IL31^K138A-SNAP fusion protein, labelled it with BG-Surface549 and applied it to keratinocytes. […] Importantly, such signal was not present in IL31RA^−/− keratinocytes (FIG. 2b). The inventors further assessed cellular signaling pathways activated by IL31^SNAP and […] in the skin by examining levels of phosphorylated Akt, pMAPK and pSTAT3 which have all been previously implicated in IL31 downstream signaling (14, 21, 22). […]
# To assess the coupling reaction, 10 and 20 pmol IL31^SNAP was coupled with 30 and 60 pmol BG549 respectively for 1 hour at 37° C. […] The bands corresponding to the binding of IL31^SNAP with BG549 were visualized by gel fluorescence. […] Protein lysate was quantified by Bradford assay. […] Bands were visualized using the ECL detection system (Amersham #RPN2106); band density was calculated using ImageJ and the levels of phosphorylated proteins were normalized to the total counterpart.
fluorescent signal in keratinocytes (IL31 Receptor A (IL31RA); IL31RA^−/− keratinocytes),fluorescent signal in keratinocytes (IL31 Receptor A (IL31RA); wildtype keratinocytes),Molecule,scratching behavior evoked by the ligand ([3]; IL31RA^−/− mice),scratching behavior evoked by the ligand ([3]; wildtype mice),"phosphorylation of Akt, MAPK and STAT3 in skin [4]",other results
,,diphtheria toxin,,,,ablation of TrkBCreERT2::AviliDTR and TrkB mRNA positive neurons (TrkB positive neurons): ~90%; expression of other markers (TrkB positive neurons): no change; reduction in the number of NF200 positive neurons (TrkB positive neurons): ~40%
,,BG-PEG11-IRDye®700DX [IR700],,,,development of atopic dermatitis-like indicators [1]: ineffective at blocking the progression of the condition; innervation of hairy and glabrous skin (TrkB positive afferents): no apparent reduction in innervation; cell death after near infrared illumination [2]: not evident; cell death after illumination (primary keratinocytes): not evident
not present,strong fluorescent signal internalized,"IL31^SNAP: recombinant IL31 with a C-terminal fusion of SNAP, produced in E. Coli (protein, left off: small tags and cut ends, recombinant IL31 with a C-terminal fusion of SNAP, produced in E. Coli) TCSLSFGAPISKEDLRTTIDLLKQESQDLYNNYSIKQASGMSADESIQLPCFSLDREALTNISVIIAHLEKVKVLSENTVDTSWVIRWLTNISCFNPLNLNISVPGNTDESYDCKVFVLTVLKQFSNCMAELQAKDNTTC",did not evoke scratching,evoked robust scratching; also recorded: induced robust scratching,increased phosphorylation in each pathway,
,,IL31: native recombinant IL31 (Peprotech) (protein) TCSLSFGAPISKEDLRTTIDLLKQESQDLYNNYSIKQASGMSADESIQLPCFSLDREALTNISVIIAHLEKVKVLSENTVDTSWVIRWLTNISCFNPLNLNISVPGNTDESYDCKVFVLTVLKQFSNCMAELQAKDNTTC,did not evoke scratching,,,
not present,Pronounced fluorescence,"IL31^K138A-SNAP: recombinant fusion protein of murine IL31 point mutant K138A with SNAP (protein, left off: small tags and cut ends) TCSLSFGAPISKEDLRTTIDLLKQESQDLYNNYSIKQASGMSADESIQLPCFSLDREALTNISVIIAHLEKVKVLSENTVDTSWVIRWLTNISCFNPLNLNISVPGNTDESYDCAVFVLTVLKQFSNCMAELQAKDNTTC",,did not evoke any scratching above baseline levels,increase was absent,
